Measured values reported in the MegaScale stability set (Tsuboyama et al. 2023).

B1: 2K2A (parent)
chain: ELREAFRLYDKEGNGYISTDVMREILAELDETLSSEDLDAMIDEIDADGSGTVDFEEFMGVMT
B2: 6YSE (parent)
chain: HERALMVNRLQKLTRMLRVHPDPKWKQEQQELIKRLK

Variants of: B1
Assay: folding stability dG (cDNA display proteolysis); higher = more stable
Conditions: PBS, room temperature

Folding stability dG [kcal/mol], by site and new letter:
V61: W 3.03; Y 2.69
T63: A 1.97; H 1.76; M 2.17; C 2.18; V 1.82; G 1.85; I 2.07; S 1.88; L 2.25; F 1.56; E 1.66; R 1.94; W 1.33; Y 1.58; Q 1.83; K 1.97; N 1.82; P 1; D 1.26
M62: S 0.277; N 0.258; P 0.128; C 1.81; G 0.514; Q 0.539; E -0.063; A 0.857; K 0.674; V 1.34; L 1.5; H 0.762; I 1.48; D 0.171; F 2.04; W 1.83; R 0.711; Y 1.58; T 0.559

Variants of: B2
Assay: as above
Conditions: PBS, room temperature

Folding stability dG [kcal/mol] of substitutions, site by site:
R3: A 0.434; Y 1.69; I 1.63; F 1.66; Q 0.786; K 1.03; M 0.994; D 0.418; L 1.61; T 1.06; V 1.34; W 1.59; G 0.193; H 1.18; N 0.899; E 0.651; S 0.487
E2: V 1.23; A 1.14; S 1.09; P 0.758; R 0.9; F 1.27; W 1.65; D 1.16; N 1.22; Y 1.32; L 1.59; M 1.46; Q 1.25; K 1.15; I 1.4; H 1.05; G 0.782
R18: D 0.512; G 0.577; Y 0.492; K 1.36; S 0.989; W 0.417; H 0.59; F 0.738; Q 1.19; I 0.881; T 0.657; L 1.2; N 0.669; M 1.29; E 0.715; A 1.45; V 0.181
L5: P -0.071; I 1.41; H 1.61; F 1.19; N 1.11; T 1.27; W 2.06; A 1.6; G 1.16; Y 1.23; M 1.83; V 1.29; Q 1.61; K 1.6; S 1.48; D 1; R 1.79
H1: K 1.42; I 1.34; T 1.45; C 2.12; W 1.75; D 1.53; L 1.36; G 1.05; A 1.55; M 1.68; P 1.31; Y 1.59; F 1.59; R 1.63; N 1.45; E 1.26; Q 1.38; S 1.5
R15: Q 1.48; M 1.33; L 1.31; N 1; D 1.01; V 0.95; H 1.12; A 1.32; I 1.14; E 1.42; T 0.631; F 0.829; W 0.914; G 0.365; Y 0.918
L17: V -0.191; C -0.743; A -0.037; M 0.852; N 0.006; R -0.68; Q -0.895; I 1.09; Y 0.234; S -0.127
M6: V 0.718; T 0.188; Y -0.185; L 1.46; H 0.07; W 0.832; I 1.8; E 0.023; A 0.574; S 0.112; K -0.045; N -0.861; F -0.384; R 0.36; G -0.19; Q 0.35; D 0.383
K12: T 1.3; Y 2.31; N 1.01; H 1.37; Q 1.71; M 1.49; I 1.43; A 1.36; D 1; L 1.53; W 2.78; V 1.43; S 0.811; F 2.26; R 1.3; G -0.272
N8: V 1.77; K 2.4; Y 1.38; D 1.45; S 1.67; H 1.47; I 1.84; F 1.21; T 1.92; E 1.56; R 2.01; M 1.67; W 1.34; Q 2.12; G 1.23; L 1.75
V7: I 1.78; L 2.05; F 1.42; T 0.591; C 1.96; D -0.144; Y 1.67; K 1.05; E 1.11; G 0.569; A 0.946; W 1.96; H 1.09; R 1.55; S 0.086; M 1.59; N 0.506; Q 1.03; P -0.01
Q11: A 1.54; T 1.09; K 2.12; S 1.1; N 1.34; C 2.24; F 1.23; H 1.38; D 0.958; I 2.12; G 0.69; W 1.5; L 1.69; M 1.73; E 1.08; R 2.14; V 1.48; Y 1.41
H20: M 1.06; L 0.97; G -0.186; D 1.3; I 1.06; F 1.39; N 1.26; K 1.57; E 0.232; A 0.952
L13: C -0.58; V 0.655; I 1.07
T14: Q 0.979; G 0.779; N 1.39; E 1.19; K 1.34; I 1.35; S 1.03; A 1.32; M 1.21; H 0.917; L 1.13; V 0.832; D 0.505; Y 1.15; R 1.3; W 0.988; F 0.771
V19: Q 1.41; A 1.21; H 1.38; G 1.34; D 1.13; F 1.51; W 1.21; R 1.55; T 1.37; M 1.37; I 1.51; L 1.48; K 1.55; S 1.23; E 1.19; N 1.44; Y 1.57
R9: E 0.136; S -0.602; W 0.91; F 0.77; Q 0.621; V -0.415; L 0.938; H 0.157; I 0.734; T -0.04; K 0.551; A -0.164; M 0.818; G -0.612; Y 0.605; C 1.19
L10: V 0.163; F -0.248; W -0.405; I 0.954; M -0.327; Y 0.292
A4: G 0.783; F 1.12; D 1.35; W 1.7; M 1.66; E 1.35; T 1.46; N 1.31; Y 1.4; H 1.35; S 1.06; P 0.222; L 1.49; K 1.68; Q 1.63; I 1.53; V 1.23
M16: K 0.733; A 0.312; I 0.699; W 1.26; F 0.018; Q -0.015; H -0.229; R 0.261; L 1.35; Y 0.489; S -0.421
